Test results from the DeepSol protein solubility set.

Test: soluble on expression in E. coli; label from the status in PepcDB or PDB records

Soluble on expression in E. coli, not soluble:
MGSDKIHHHHHHMFRRHGIIAFSSNYELYADMSNRVMTTLEELSPRCEIYSIDEAFCDLTGVRNCRDLTDFGREIRETVLRRTHLTIGVGIAQTKTLAKLANHAAKQWQRQTGGVVDLSNLERQRKLMALLPVDEVWGVGRRISKKLEAMGIKTVLQLADTDIRFIRKHFNVVLERTVRELRGEPCLGLEEFAPVKQEIVCSRSFGGRITEYHEMRQAICSYASRAAEKLRGEHQYCRFISAFVKTSPFALNEPYYGNSASVKLLTPTQDSRDIITAATKCLDAIWRDGHRYQKAGVMLGDFYSQGVAQLNLFDDNAPRKGSEKLMEVLDHLNAKGGRGTLYFAGQGIQTAWQMKREMLSPRYTTRFCDLLKVR, MGSDKIHHHHHHMFSKIEFKNFMSFSNLTFDLLNRGKCKDIIAIYGENGSGKTNIVEAFKLLVLSLQSMESLNENTRLQSLLKEQTNKEENQKTNFGDISEILDKISFFTTFKGIAKNTHRIASEGNTILKYYFNIEKDNGYYLLEYNENNELVKEELVFKIKSNKGVHFSITNIDGLSQSLNKTIFKNTIFKDLTEQIEKYWGKHTFLSIFNNYCLEVNEEFINEQVSINFQKVVDEFDKIFIWSGNFRGPFHSTELLLKDISKGKIDKSEKEKLSYTEEIIYKYFSALYIDIKDVKYKQDAQGQEIKYELMIRKNIGGDLLDVPISLESQGTKNLLDLLKVFNNVLDGKICIVDEIDSGIHDLLMNSILNDLKGSVNGQLIFTTHDTTLLKELSPSSAYFLNVDIKGNKVIISGNEADKKIGVNNNLEKLYLSGFFGAVPDPLDIDFSDLFLDHNLSED, MGSDKIHHHHHHMGGAALPDNGWPADRIDTESAHSARIYDYIIGGKDYYPADKEAGDAMSREWPALPVHMRANRDWMNRAVAHLAKEAGIRQFLDIGTGIPTSPNLHEIAQSVAPESRVVYVDNDPIVLTLSQGLLASTPEGRTAYVEADMLDPASILDAPELRDTLDLTRPVALTVIAIVHFVLDEDDAVGIVRRLLEPLPSGSYLAMSIGTAEFAPQEVGRVAREYAARNMPMRLRTHAEAEEFFEGLELVEPGIVQVHKWHPDAATADGIRDEDIAMYGAVARKP, MGSDKIHHHHHHMGIYRTQLPQLDGGVFLTDGGIETTLIFHEGFELPYFAAFELLKTPQGRDALTHYFVTYVKLAGLFDTGFILESPTWRASSDWGALLGYTKETLAQANREAIALLEVIREAHSGRLPVVVSGCIGPRFDGYLPDKSMTAEDARHYHSIQIETLASTSADMICALTLNRVEEAIGIVEAAREAAMPVVISFTLETDGRLPTGQSLGDAVVQVDEATAGYAAYFMINCAHPSHLETVPQDAPWLARVKGFRANASSLSHAELNDATTLDDGDPHQLGQQYASLMSTRLKGLNVLGGCCGTDHRHLEQIAKACIKPR, MGSDKIHHHHHHMGLEQDDEGGARRACVIVIGNQKGGSGKSTVAMHLVVSLARAGLRTGSIDLDAGQATLTRYLENRRAFAEKRGLDLPSPEHVPMVPGTSLEADIRRLEHSMLAFHEEVDVVVIDTPGSDTALNRAAHALADVLITPLNDSFIDLDVMARIDGDSMTITGPSPYAAAVWEAKQARARRDGTSMRWIVMRNRLSHLDARNKRDMEDALNDLSRRIGFSVVPGLGERVIYRELFLNGLTLLDLKDKGTGVDISMSHVAARQELRALLAAIGMPKSIGL, MGSDKIHHHHHHMGLLTKGSPLTWAETVPHIDYIKKHGIAQFINLYHRLKSRHGDQLKWGDEIEYTIVKFDDANKKVRVSCKAEELLNKLQAEEQVNAMLGTANRFLWRPEFGSYMIEGTPGMPYGGLIACFNIVEANMKLRRQDETCLSISFPSLGVPGFTFPEVAADRKNDDAANSVFWPEQAVFLGHPRFKNLTKNIKGRRGSKVAINVPIFKDTNTPSPFVEDLSALGGPDDTRDAKPDHIYMDHMGFGMGCCCLQVTFQAVNVDEARWLYDQLTPITPILLALSAATPIFRGKLSNVDSRWDIISASVDDRTPEERGLEPLKNSKWVIDKSRYDSTDCYIYPCSVGYNDIPLQYDETIYKQLIDGNIDEPLAKHIAHMFIRDPHQVFRERIEQDDEKSSEHFETIQSSNWMNMRFKPPPPDAPEIGWRVEFRPTEVQLTDFENAAYCCFVVLLTRMMISFRLTYLMPISMVTENMKRAQQKDAVLNQKFLFRKGLAECKSAPENLKGSEKCGPPSQDIEEMSIDEIINGKKNGFPGLISLIRQFLDSADVDVDTRCTISQYLNFISKRATGEINTLAHWTRGFVQSHPAYKHDSDVNDNIVYDLLKKMDAISNGEDHCEKLLGCYRSKTDHAISAAVRKAEEHMIVSSQKRAH, MGSDKIHHHHHHMGLNAYIQGFNSLESIDRAPGYFKYHHHSVADHCFRTAELAQMMGDIEEVHGNKKINWKALYEKSLNHDYTERFIGDIKTPVKYATPQLRKMIGDVEETMTTKFIKEEIPKEFQEIYTRRLSEGKDDTLEGKILSVCDKLDLLYEAYGEIELGNPNPVYMQMFKESLETIKKFDDLVCVQYFIKKILPDLFKGDFAGKDKMQRIAFSILLLGDDE, MGSDKIHHHHHHMGQRIIIDPVTRIEGHAKISIHLDDHGDVAETRFHVTEFRGFERFCIGRPFWEMPGITARICGICPVSHLLASARAGDGILAVLIPPAAEKLRRLMNLAQIIQSHALSFFHLSGPDLMLGFDSDPAQRNIFGLIAADPDVARNGIRLRQFGQEVIEMLGGRKIHPAWAVPGGVRSGLSASSRDHIRAKLPEMLTIACDALGRLKQLSAKYQREIETFGVFPSLYLGMVGPGGRWMHYGGKLRVIDHTGNILIDELDPIDYRDVIGEAVEPWSYLKFPYIRALGYPQGMYRVGPLARINICTTMGAERADAELRELRQAVGPVIHGSFYYHHARLIEIIAALERMEVLVEDDDLLSTELRADAGVNRHEAVGVSEAPRGTLFHHYRVDEKGLITDVNLIIATGQNNLAINRTVGQIAQSYIRHGQFDEGILNRIEAGVRAYDPCLSCSTHAVGQMAMEVDLYNAQGELINRLSR, MGSDKIHHHHHHMGQTTFSRQKDGQPDTAYHDSETTYHYSETTYNYAYLDESTKGMIRRAILKAIAIPGHQVPFGSREMPMPYGWGTGGIQITASIIGPNDTLKVIDQGSDDTTNAVSIRAFFRKVTNVPTTEKTSEATLIQTRHRIPETPLKEDQILVFQVPIPEPLRFIEPRETETCKMHALEEYGVMQVKLYEDIARFGHIATTYAYPVKVNHRYVMDPSPIPKFDNPKMDMMPALQLFGAGREKRVYAVPPYTVVESLDFDDHPFTIQQWDKPCELCGARDSFLDEVVMDDDGTRMFVCSDTDYCQLRQSQGEKTS, MGSDKIHHHHHHMGTKKNFVIDTNVILHDYNCLKNFQENDIHLPLVVLEELDKFKKGNEQINFNAREFVRELDLLTSDELFSQGVSLGEGMGRLFVVPGNVDAPKVHESFPVKKPDHLILAAVEYLAAKYPKTPAILVTKDVNLRMKARSIGITSEDYITDKVSNVDIFEKSNEIFENVDPALIDRIYSSKEGIDLSEFDFKDVIHPNECFVLKSDRNSVLARYNPFTHSICRVTKGRNYGIEPRNAEQSFAFEILNDPNVKLVALTGKAGTGKTLLALAAALGKLTDYKQVLLARPVVALSNKDIGFLPGDAQEKVAPYMQPLFDNLNVIKRQFAANSTEVKRIEDMQKSEQLVIEALAFIRGRSLSEMYCIIDEAQNLTPNEIKTIITRAGEGTKMVFTGDIQQIDQPYLDSQSNGLVYMIDRMKDQNIFAHVNLVKGERSQLSELASNLL, MGSDKIHHHHHHMGVKFTLMGTTAGLGVPAFHCNCIACREARADPFWARTRSGAVLETGKENILIDASPDLSKQLLRERIQSVDYLFVTHWHYDHFGGIGDLEYYVKLERKRPVALFLPPSAVDDFAKAYPFLEEVFVIEPWEFGKSYAFEGIELTVLPARHSIETGGILLAGAKRAAYFTDTSGLPAPTARQLQGVDTLICDATFNGANWFPHSHMNWQEAIALGESIRAQHTVLTHLAMHYSTPITAAQLQEKLKDYAQVSLAYDGMVLTI, MGSDKIHHHHHHMHILFLTHYFPPEVNAPASRTYENARRWVRDGHHVTVITCAPNHPKGVIYPGYRNRWCQQEDLDGIRVLRVKTYLSANKGFAKRIANYLSYMLSSTVFSCLVRDIDVVVSTSPQFFCGLAGYFVSRARSAPWVVEIRDLWPESIIAVGAIRNRTVIDLLEGLETFMYRRADHVVAVTDAFKRHIAGRGVGRDRISVIKNGADLERFTSGPRENSFRREHGLEGKFVVSYVGTHGMAHGLNTIFETAEAMRSCEDIVFLLVGDGAEREPLLARKAELGLTNVLMLPQQPKERMPEIINASDACMVLLKKTDLFKTVIPSKIFEAMAMERPIILGVEGESREIVEEGCCGLCIEPENAAELADAIRRLRDDGKLADELGQNGRRFVSAVFNREVLARRYLETLSSMVPLPASTIGVIGKELP, MGSDKIHHHHHHMHKVMISRIKGTQDIAFEDIDYWHFAEEIIRNISHKYAFTEIRTPIFEATELFKRSVGESTDVVQKEMYTFEDKGGRSITLRPEGTASVARAFIENSFINLGSPVKLFYSGPMFRYEKPQAGRLRQFHQFGAEILGSESPLADFEIIEMAYSFLKELKINNAKLFINSIGCPACREDYKTALKEYYSDKLAGMCPDCQRRYETNVLRLLDCKIDKGLVQGAPGILDYLDSDCRSHFEELQWYLERAGIDYEVDQFLVRGLDYYTRTAFEIRSSSLGSQDQLVGGGRYDGLVEYIGGKSCPAVGFAIGLERIVMLLKSENVRINGPETSEVAILTFGREESVRGFDYAKRLRKMGVSTFVDVMERNMRNKMKHASRIGAKISLLIGKEEIERDIVTIKVMNDGSQFQVDSDYMADYVVDKLRDIS, MGSDKIHHHHHHMHRDTVFDLIGIGFGPSNLALAVRLAEEAGVPDLAHCFIERQPEFGWHRGMLLDDCRMQISFLKDLVTMRDPKSRFTFINYLFERGRLADFVNLKSFYPTRVEFHDYLAWVAASFDDRVNYGQTVTGIEAVKATARTNEVEALRVFSRDSEGREWQRVTRALSVGIGGGAQVPEAFAALGTHNIVHSSQYLTSIDRVVGPASSARKRVAVIGAGQSAAEVFVDLTRRYPHVDASLIIRSGALKPADDSPFVNEIFSPAFTDVVYAQPRDGRRALIERFRDTNYAVVDRPLIEQIYEMLYLQNVCAEPRHRLLANTGIETAVRTVNGRIELTLRDRLNGHARAEQFDALVLATGYRRDTHLDLLEGLAPHLGEALAQGNVERDYRLATPASFKPRIYLQGCCEDSHGLSDTLLSVLALRSDEIAASLAHHAAQDRSAGRAGEAQANATAASRMAFAL, MGSDKIHHHHHHMHTFLASSSMQLSVPPNHFQSMKIVALGDSLIYGFGDPEKGGWIEQLRRWWMLPDSAGHVLYNLGVRGDRTQQVAQRLEVEFRHRGELRNRVPDLIILSVGVNDSARLARPDGRSYTDFTLFEKEIATLLDLAQQLCPVLFVGMVPVDEAKMPFLDCFYYNHVDQYRYKEATRLACTKRQIPYLDIFEKWMERGENWRLKRLSEDGLHPNTLGYQALLEDVINWDAIHSVGFANAAYHSQFNYHLKQS, MGSDKIHHHHHHMIAKIIMGGGKMIKRVKTGIPGMDEILHGGIPERNIVLISGGPGTGKTIFSQQFIWNGLQMGEPGIYVALEEHPVQVKKNMEVFGWNVDPFEKEGKFAIVDAFTGGIGEYAEKEKYVVRDIDDVRELAEVLKRAVRETQAKRVVIDSVTTLYITKPAMARSIIFQLKRILSGLGCTSLFVSQVSVTEKGFGGPGVEHGVDGIIRLDLDEIDGELKRSLIVWKMRGTSHSMRRHPFEITDKGIVIYPSEGGEGR
